# Laboratory results taken from paper PMC12342048, “Cleavage of Cartilage Oligomeric Matrix Protein (COMP) by ADAMTS4 generates a neoepitope associated with osteoarthritis and other forms of degenerative joint disease” (Matrix biology : journal of the International Society for …, 2024).
# How the values were obtained:
# [1] = biological target: the molecule itself; experiment: non-reducing SDS-PAGE; purified COMP, 4 μg/lane, 4–12 % SDS-PAGE under non-reducing conditions, Coomassie Brilliant Blue staining; under reducing conditions (5 % β-mercaptoethanol) a monomer band at ~100 kDa
# [2] = biological target: the molecule itself; experiment: non-reducing SDS-PAGE with immunoblot; hCOMP (520 nM) incubated with ADAMTS4 WT (12 nM) for 2 h at 37 °C in TNC-B; non-reducing SDS-PAGE, immunoblot with anti-QQS77 neoepitope antibody
protein,measurement,setting,value
"Drosophila melanogaster S2-expressed human COMP (Cartilage Oligomeric Matrix Protein) (natural protein, N-linked glycans (shown by PNGase F), Cartilage Oligomeric Matrix Protein, human; the Drosophila BiP secretion signal is fused to Gly22 of COMP and cleaved off before secretion to give a native N terminus; numbers count on NP_000086.2 (precursor); on non-reducing SDS-PAGE a mixture of monomers to pentamers was seen; also called iCOMP; thrombospondin 5; source: Drosophila melanogaster Schneider 2 (S2) cells, purified from conditioned …) not shown",binding result,[1],binds
"fully cleaved N-terminal domain (NTD) of COMP ending at the QQS77 neoepitope (domain or fragment, human, UniProt P49747-1 21-77, looked up, Cartilage Oligomeric Matrix Protein, human, N-terminal product of the cleavage at the S77-V78 bond; numbers count on NP_000086.2 (precursor); Made by proteolysis of m2; also called fully cleaved NTD pentamer; N-terminal cleavage fragment; source: hCOMP (520 nM, purified from Freestyle 293-F medium) digested with purified ADAMTS4 (12 nM), 2 h, 37 °C) QGQSPLGSDLGPQMLRELQETNAALQDVRELLRQQVREITFLKNTVMECDACGMQQS",stoichiometry N,[2],5
